In PMC9482650, “Quantitative fragmentomics allow affinity mapping of interactomes” (Nature Communications, 2022):

What was measured:
Assay in all cases: holdup assay
Design in all cases: key: below the threshold = too weak to quantify, mostly under pKd 3.1 to 4
IL16_4, Q14005 = target: IL16_4, Q14005
TJP1_3, Q07157 = target: TJP1_3, Q07157
HTRA2, O43464 = target: HTRA2, O43464
Inadl_6, Q8NI35 = target: Inadl_6, Q8NI35
RADIL, Q96JH8 = target: T1, RADIL, Q96JH8
T1 sequence (Q96JH8 971-1071, limits assumed, looked up): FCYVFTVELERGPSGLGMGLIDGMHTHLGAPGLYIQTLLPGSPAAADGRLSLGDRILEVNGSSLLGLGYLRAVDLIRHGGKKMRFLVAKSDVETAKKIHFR

MPDZ_5, O75970 = target: T2, MPDZ_5, O75970
T2 sequence (O75970 695-796, limits assumed, looked up): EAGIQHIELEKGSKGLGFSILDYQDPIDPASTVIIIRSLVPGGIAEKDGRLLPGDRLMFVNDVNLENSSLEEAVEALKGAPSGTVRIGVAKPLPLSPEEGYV

ARHGEF12, Q9NZN5-2 = target: ARHGEF12, Q9NZN5-2
MPP6, Q9NZW5 = target: T3, MPP6, Q9NZW5
T3 sequence (Q9NZW5 125-219, limits assumed, looked up): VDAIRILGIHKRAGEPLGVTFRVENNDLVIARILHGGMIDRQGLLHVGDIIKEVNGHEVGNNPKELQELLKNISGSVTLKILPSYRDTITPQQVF

GRIP2_5, Q9C0E4 = target: GRIP2_5, Q9C0E4
GIPC2, Q8TF65 = target: GIPC2, Q8TF65
CARD11, Q9BXL7 = target: T4, CARD11, Q9BXL7
T4 sequence (Q9BXL7 662-765, limits assumed, looked up): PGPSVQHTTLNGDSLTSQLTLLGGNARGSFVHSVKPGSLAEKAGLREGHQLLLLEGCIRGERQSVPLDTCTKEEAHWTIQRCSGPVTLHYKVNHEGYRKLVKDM

SIPA1L2, Q9P2F8 = target: T5, SIPA1L2, Q9P2F8
T5 sequence (Q9P2F8 945-1036, limits assumed, looked up): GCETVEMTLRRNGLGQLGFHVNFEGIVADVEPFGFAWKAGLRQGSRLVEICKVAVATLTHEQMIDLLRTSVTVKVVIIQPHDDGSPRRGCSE

Inadl_3, Q8NI35 = target: Inadl_3, Q8NI35
RAPGEF6, Q8TEU7 = target: T6, RAPGEF6, Q8TEU7
T6 sequence (Q8TEU7 525-625, limits assumed, looked up): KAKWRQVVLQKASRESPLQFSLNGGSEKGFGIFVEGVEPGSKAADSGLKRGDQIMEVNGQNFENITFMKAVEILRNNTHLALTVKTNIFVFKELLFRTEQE

ARHGEF11, O15085 = target: T7, ARHGEF11, O15085
T7 sequence (O15085 42-136, limits assumed, looked up): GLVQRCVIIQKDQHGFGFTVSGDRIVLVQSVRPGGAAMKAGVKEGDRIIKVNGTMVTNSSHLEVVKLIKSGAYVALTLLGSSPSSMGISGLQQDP

PTPN3, P26045 = target: PTPN3, P26045
MAGI1_2, Q96QZ7 = target: MAGI1_2, Q96QZ7
PDLIM1, O00151 = target: PDLIM1, O00151
MPDZ_10, O75970 = target: T8, MPDZ_10, O75970
T8 sequence (O75970 1624-1722, limits assumed, looked up): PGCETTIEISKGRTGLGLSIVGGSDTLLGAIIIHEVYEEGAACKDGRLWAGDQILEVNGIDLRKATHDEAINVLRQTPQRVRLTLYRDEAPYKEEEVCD

LIN7C, Q9NUP9 = target: T9, LIN7C, Q9NUP9
T9 sequence (Q9NUP9 88-185, limits assumed, looked up): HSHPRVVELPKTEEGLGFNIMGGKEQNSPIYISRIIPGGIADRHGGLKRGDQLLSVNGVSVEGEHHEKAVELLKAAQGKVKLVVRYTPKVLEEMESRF

PTPN13_1, Q12923 = target: T10, PTPN13_1, Q12923
T10 sequence (Q12923 1088-1188, limits assumed, looked up): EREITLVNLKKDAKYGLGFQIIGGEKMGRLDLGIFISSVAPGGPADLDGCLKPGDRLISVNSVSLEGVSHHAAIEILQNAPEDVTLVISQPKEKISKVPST

ARHGAP21, Q5T5U3 = target: T11, ARHGAP21, Q5T5U3
T11 sequence (Q5T5U3 45-169, limits assumed, looked up): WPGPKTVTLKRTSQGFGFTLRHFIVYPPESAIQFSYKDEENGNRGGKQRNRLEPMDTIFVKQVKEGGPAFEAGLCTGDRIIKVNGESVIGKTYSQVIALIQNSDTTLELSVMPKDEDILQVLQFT

NHERF4_4, Q86UT5 = target: NHERF4_4, Q86UT5
Inadl_2, Q8NI35 = target: Inadl_2, Q8NI35
DVL3, Q92997 = target: T12, DVL3, Q92997
T12 sequence (Q92997 244-331, limits assumed, looked up): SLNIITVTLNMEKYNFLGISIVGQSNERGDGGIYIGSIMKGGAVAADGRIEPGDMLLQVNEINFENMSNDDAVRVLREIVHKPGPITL

[1] = plain residues with an end cap or a label only (N-terminal biotin on a linker: ttds)
[2] = plain residues with an end cap or a label only (N-terminal biotin on a linker: ado-ado)

Sequence of ARHGEF12, Q9NZN5-2 (Q9NZN5 other isoform, or with tags, fused parts or gaps): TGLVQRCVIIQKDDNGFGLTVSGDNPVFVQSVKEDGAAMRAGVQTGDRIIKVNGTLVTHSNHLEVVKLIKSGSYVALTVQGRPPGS
Sequence of GIPC2, Q8TF65 (Q8TF65 112-203): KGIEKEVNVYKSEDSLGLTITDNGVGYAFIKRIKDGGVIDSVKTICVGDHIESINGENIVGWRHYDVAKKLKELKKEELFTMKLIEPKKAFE
Sequence of GRIP2_5, Q9C0E4 (Q9C0E4 544-642): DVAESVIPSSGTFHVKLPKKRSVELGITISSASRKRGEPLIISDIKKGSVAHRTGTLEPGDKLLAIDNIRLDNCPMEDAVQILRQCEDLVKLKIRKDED
Sequence of NHERF4_4, Q86UT5 (Q86UT5 464-550): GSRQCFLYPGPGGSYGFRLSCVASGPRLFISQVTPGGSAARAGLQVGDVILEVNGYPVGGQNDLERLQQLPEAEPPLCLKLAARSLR
Sequence of PDLIM1, O00151 (O00151 1-87): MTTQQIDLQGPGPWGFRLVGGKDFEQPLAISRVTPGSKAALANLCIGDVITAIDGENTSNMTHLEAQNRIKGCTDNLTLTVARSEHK
Sequence of HTRA2, O43464 (O43464 355-458): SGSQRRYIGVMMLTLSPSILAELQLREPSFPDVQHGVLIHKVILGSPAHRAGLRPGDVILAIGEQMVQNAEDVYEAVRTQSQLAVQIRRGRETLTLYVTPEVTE
Sequence of IL16_4, Q14005 (Q14005 1229-1329): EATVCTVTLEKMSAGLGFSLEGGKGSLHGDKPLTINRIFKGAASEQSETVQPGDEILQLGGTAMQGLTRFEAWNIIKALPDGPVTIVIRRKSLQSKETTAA
Sequence of Inadl_6, Q8NI35 (Q8NI35 1058-1167): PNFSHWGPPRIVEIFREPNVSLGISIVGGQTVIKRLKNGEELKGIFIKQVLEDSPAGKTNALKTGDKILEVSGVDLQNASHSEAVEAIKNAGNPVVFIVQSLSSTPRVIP
Sequence of PTPN3, P26045 (P26045 505-587): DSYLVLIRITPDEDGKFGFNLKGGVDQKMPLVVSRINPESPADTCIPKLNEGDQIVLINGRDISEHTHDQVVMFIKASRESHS
Sequence of TJP1_3, Q07157 (Q07157 416-512): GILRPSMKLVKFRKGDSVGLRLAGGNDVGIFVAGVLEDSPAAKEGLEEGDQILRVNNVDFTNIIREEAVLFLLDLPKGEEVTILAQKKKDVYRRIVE
Sequence of MAGI1_2, Q96QZ7 (Q96QZ7 456-580): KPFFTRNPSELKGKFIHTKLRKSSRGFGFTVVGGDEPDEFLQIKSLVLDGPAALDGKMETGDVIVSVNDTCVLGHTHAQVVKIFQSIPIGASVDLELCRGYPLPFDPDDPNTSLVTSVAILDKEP
Sequence of Inadl_2, Q8NI35 (Q8NI35 238-335): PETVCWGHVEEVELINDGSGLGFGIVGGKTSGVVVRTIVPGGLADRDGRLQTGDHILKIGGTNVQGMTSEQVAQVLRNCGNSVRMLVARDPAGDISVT
Sequence of Inadl_3, Q8NI35 (Q8NI35 359-469): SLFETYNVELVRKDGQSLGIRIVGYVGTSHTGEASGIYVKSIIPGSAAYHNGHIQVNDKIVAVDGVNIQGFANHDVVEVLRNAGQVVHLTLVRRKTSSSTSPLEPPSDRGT

## SEKHFRETEV [HTLV1-TAX1, P03409]
IL16_4, Q14005; [1]
  pKd: below the threshold
TJP1_3, Q07157; [1]
  pKd: below the threshold
HTRA2, O43464; [1]
  pKd: below the threshold
Inadl_6, Q8NI35; [1]
  pKd: 3.69
RADIL, Q96JH8; [1]
  pKd: below the threshold
MPDZ_5, O75970; [1]
  pKd: below the threshold
ARHGEF12, Q9NZN5-2; [1]
  pKd: 3.81
MPP6, Q9NZW5; [1]
  pKd: below the threshold
GRIP2_5, Q9C0E4; [1]
  pKd: below the threshold
GIPC2, Q8TF65; [1]
  pKd: 3.82
CARD11, Q9BXL7; [1]
  pKd: below the threshold
SIPA1L2, Q9P2F8; [1]
  pKd: below the threshold
Inadl_3, Q8NI35; [1]
  pKd: 3.69
RAPGEF6, Q8TEU7; [1]
  pKd: below the threshold
ARHGEF11, O15085; [1]
  pKd: 4.22
PTPN3, P26045; [1]
  pKd: 5.26
MAGI1_2, Q96QZ7; [1]
  pKd: 4.45
PDLIM1, O00151; [1]
  pKd: 3.69
MPDZ_10, O75970; [1]
  pKd: below the threshold
LIN7C, Q9NUP9; [1]
  pKd: 4.59
PTPN13_1, Q12923; [1]
  pKd: below the threshold
ARHGAP21, Q5T5U3; [1]
  pKd: below the threshold
NHERF4_4, Q86UT5; [1]
  pKd: below the threshold
Inadl_2, Q8NI35; [1]
  pKd: below the threshold
DVL3, Q92997; [1]
  pKd: 3.62

## GFGEERESIL [KIDINS220, Q9ULH0]
IL16_4, Q14005; [2]
  pKd: 3.74
TJP1_3, Q07157; [2]
  pKd: below the threshold
HTRA2, O43464; [2]
  pKd: below the threshold
Inadl_6, Q8NI35; [2]
  pKd: 4.1
RADIL, Q96JH8; [2]
  pKd: 3.61
MPDZ_5, O75970; [2]
  pKd: below the threshold
ARHGEF12, Q9NZN5-2; [2]
  pKd: 4.13
MPP6, Q9NZW5; [2]
  pKd: below the threshold
GRIP2_5, Q9C0E4; [2]
  pKd: below the threshold
GIPC2, Q8TF65; [2]
  pKd: 3.87
CARD11, Q9BXL7; [2]
  pKd: below the threshold
SIPA1L2, Q9P2F8; [2]
  pKd: below the threshold
Inadl_3, Q8NI35; [2]
  pKd: 3.65
RAPGEF6, Q8TEU7; [2]
  pKd: below the threshold
ARHGEF11, O15085; [2]
  pKd: 3.8
PTPN3, P26045; [2]
  pKd: 5.22
MAGI1_2, Q96QZ7; [2]
  pKd: below the threshold
PDLIM1, O00151; [2]
  pKd: below the threshold
MPDZ_10, O75970; [2]
  pKd: below the threshold
LIN7C, Q9NUP9; [2]
  pKd: 3.63
PTPN13_1, Q12923; [2]
  pKd: below the threshold
ARHGAP21, Q5T5U3; [2]
  pKd: 3.9
NHERF4_4, Q86UT5; [2]
  pKd: below the threshold
Inadl_2, Q8NI35; [2]
  pKd: below the threshold
DVL3, Q92997; [2]
  pKd: below the threshold

## HIVEALETDV [PBK, Q96KB5]
IL16_4, Q14005; [1]
  pKd: below the threshold
TJP1_3, Q07157; [1]
  pKd: below the threshold
HTRA2, O43464; [1]
  pKd: below the threshold
Inadl_6, Q8NI35; [1]
  pKd: 3.78
RADIL, Q96JH8; [1]
  pKd: below the threshold
MPDZ_5, O75970; [1]
  pKd: below the threshold
ARHGEF12, Q9NZN5-2; [1]
  pKd: 4.23
MPP6, Q9NZW5; [1]
  pKd: below the threshold
GRIP2_5, Q9C0E4; [1]
  pKd: below the threshold
GIPC2, Q8TF65; [1]
  pKd: 4.55
CARD11, Q9BXL7; [1]
  pKd: below the threshold
SIPA1L2, Q9P2F8; [1]
  pKd: below the threshold
Inadl_3, Q8NI35; [1]
  pKd: 4.46
RAPGEF6, Q8TEU7; [1]
  pKd: below the threshold
ARHGEF11, O15085; [1]
  pKd: 4.31
PTPN3, P26045; [1]
  pKd: 5.11
MAGI1_2, Q96QZ7; [1]
  pKd: below the threshold
PDLIM1, O00151; [1]
  pKd: 3.91
MPDZ_10, O75970; [1]
  pKd: below the threshold
LIN7C, Q9NUP9; [1]
  pKd: 4.05
PTPN13_1, Q12923; [1]
  pKd: below the threshold
ARHGAP21, Q5T5U3; [1]
  pKd: 3.91
NHERF4_4, Q86UT5; [1]
  pKd: below the threshold
Inadl_2, Q8NI35; [1]
  pKd: below the threshold
DVL3, Q92997; [1]
  pKd: below the threshold
